# Source: patent US20190309072A1 (published 2019)
# B1: anti-ITGa3 huVM2 Hc2T62G/Lc1 antibody (antibody, V domains shown)
# VH: QVQLVQSGAEVKKPGSSVKVSCKASGYTFTEYIIHWVRQAPGQGLEWIGWFYPESGSVKYNEGFKGRATITADKSTSTAYMELSSLRSEDTAVYYCARHEERDYYGYYAMDYWGQGTTVTVSS
# VL: DIQMTQSPSSLSASVGDRVTITCSASSSISSNYLHWYQQKPGKVPKLLIYRTSNLASGVPSRFSGSGSGTDYTLTISSLQPEDVATYYCQQGSSIPRFTSGGGTKVEIKR
# Columns and labels:
# [1] = target: T1, human ITGa3 protein (human, UniProt P26006 33-991); test: ELISA; apparent Kd
# T1 chain: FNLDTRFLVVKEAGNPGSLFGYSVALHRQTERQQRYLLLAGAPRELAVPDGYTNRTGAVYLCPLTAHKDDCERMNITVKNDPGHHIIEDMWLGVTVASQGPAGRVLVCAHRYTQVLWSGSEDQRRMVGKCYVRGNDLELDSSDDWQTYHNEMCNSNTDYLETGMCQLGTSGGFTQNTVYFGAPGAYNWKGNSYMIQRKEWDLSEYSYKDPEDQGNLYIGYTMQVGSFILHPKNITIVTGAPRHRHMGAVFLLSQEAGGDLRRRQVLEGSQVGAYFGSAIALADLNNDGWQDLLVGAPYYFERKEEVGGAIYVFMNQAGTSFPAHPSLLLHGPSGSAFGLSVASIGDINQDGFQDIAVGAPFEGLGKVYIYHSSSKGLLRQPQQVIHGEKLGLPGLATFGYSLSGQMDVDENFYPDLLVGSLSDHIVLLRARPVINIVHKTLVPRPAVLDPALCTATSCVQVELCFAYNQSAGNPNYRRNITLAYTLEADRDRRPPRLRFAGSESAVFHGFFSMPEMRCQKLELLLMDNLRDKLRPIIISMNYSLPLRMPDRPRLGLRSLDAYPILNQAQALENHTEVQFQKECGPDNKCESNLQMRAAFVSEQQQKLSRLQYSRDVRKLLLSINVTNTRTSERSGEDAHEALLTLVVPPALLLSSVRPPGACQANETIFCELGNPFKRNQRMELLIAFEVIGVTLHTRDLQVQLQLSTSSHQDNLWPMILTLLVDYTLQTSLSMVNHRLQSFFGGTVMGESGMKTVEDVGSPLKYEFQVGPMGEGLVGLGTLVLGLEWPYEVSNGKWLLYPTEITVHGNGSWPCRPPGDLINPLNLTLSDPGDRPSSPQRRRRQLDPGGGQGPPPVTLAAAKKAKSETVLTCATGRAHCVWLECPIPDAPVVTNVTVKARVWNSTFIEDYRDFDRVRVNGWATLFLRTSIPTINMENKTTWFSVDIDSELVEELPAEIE
# [2] = target: T2, human ITGa3 on human-derived cell lines (human, UniProt P26006 33-1051); test: FACS; human H292 cells
# T2 chain: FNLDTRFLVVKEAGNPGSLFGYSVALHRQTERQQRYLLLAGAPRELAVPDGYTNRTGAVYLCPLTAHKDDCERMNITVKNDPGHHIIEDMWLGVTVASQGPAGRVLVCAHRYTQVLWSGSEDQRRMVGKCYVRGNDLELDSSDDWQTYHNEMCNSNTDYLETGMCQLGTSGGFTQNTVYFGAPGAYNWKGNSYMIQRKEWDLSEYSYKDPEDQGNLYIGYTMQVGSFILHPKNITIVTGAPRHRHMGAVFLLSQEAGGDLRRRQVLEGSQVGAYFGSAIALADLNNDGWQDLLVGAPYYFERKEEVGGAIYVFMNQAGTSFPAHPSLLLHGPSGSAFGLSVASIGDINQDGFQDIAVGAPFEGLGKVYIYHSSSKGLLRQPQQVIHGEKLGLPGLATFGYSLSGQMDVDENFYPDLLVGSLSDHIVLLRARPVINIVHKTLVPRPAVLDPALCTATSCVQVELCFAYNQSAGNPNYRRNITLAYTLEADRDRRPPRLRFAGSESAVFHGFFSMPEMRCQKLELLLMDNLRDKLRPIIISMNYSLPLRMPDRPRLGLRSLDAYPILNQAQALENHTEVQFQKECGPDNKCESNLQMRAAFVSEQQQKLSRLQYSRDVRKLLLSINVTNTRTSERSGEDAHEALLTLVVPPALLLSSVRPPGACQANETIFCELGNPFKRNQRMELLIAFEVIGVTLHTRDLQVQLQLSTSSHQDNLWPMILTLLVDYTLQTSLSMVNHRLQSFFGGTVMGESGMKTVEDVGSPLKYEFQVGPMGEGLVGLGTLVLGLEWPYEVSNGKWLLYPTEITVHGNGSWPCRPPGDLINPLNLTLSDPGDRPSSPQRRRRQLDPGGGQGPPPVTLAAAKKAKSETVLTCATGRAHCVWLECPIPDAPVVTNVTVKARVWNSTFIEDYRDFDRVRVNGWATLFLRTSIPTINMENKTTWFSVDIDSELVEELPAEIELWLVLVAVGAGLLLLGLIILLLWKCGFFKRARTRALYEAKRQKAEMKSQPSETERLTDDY
# [3] = target: T3, cynomolgus monkey ITGa3 on cynomolgus-derived primary kidney epithelial cells (cynomolgus monkey, UniProt A0A2K5VFR2 17-1035); test: FACS; cyno primary kidney epithelial cells
# T3 chain: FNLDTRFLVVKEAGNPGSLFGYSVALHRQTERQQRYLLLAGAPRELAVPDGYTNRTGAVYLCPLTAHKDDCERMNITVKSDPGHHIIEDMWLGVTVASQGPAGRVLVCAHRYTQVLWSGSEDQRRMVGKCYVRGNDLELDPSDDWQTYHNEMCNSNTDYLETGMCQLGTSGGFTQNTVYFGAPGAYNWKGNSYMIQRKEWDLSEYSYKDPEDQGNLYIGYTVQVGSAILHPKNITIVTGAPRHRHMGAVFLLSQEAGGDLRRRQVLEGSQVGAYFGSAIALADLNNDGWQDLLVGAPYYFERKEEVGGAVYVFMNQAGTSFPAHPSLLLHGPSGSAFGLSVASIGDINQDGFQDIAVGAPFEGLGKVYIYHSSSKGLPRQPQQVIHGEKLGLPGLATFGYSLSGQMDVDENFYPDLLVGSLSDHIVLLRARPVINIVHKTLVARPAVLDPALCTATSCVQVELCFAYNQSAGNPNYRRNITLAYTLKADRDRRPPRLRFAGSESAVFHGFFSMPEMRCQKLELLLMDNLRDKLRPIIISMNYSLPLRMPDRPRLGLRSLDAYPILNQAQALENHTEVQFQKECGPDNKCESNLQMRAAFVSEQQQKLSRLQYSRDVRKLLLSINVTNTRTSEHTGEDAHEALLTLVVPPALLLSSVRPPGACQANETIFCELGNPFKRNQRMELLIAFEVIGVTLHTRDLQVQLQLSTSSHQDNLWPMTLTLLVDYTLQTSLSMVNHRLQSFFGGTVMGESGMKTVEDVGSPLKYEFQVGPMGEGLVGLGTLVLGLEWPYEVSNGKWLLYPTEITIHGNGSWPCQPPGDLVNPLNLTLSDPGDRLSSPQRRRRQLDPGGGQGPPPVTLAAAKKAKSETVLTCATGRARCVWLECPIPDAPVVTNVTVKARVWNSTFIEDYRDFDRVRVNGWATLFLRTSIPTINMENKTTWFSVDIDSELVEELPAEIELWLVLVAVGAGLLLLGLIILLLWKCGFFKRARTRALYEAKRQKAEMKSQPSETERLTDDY
binder,measurement,setting,value
B1,Kd,[1],0.18 nM
same,Kd,[2],0.27 nM
same,Kd,[3],0.17 nM
